Measured values published in patent US20240150441A1 (ARIZONA BOARD OF REGENTS ON BEHALF OF ARIZONA STATE …, published 2024).

Tests used:
[1] = biological target: spike (S) protein of the authentic parental Omicron variant (B.1.1.529) of SARS-CoV-2 (SARS-CoV-2, B.1.1.529 (Omicron) variant, UniProt P0DTC2 14-1273); test: cell-based or functional assay
[2] = biological target: spike (S) protein of the BA.4/5 SARS-CoV-2 pseudovirus (SARS-CoV-2, Omicron subvariant BA.4/5, UniProt P0DTC2 14-1273); test: cell-based or functional assay

B1: plant-made tixagevimab (pTixagevimab) (antibody, V domains shown)
VH: QMQLVQSGPEVKKPGTSVKVSCKASGFTFMSSAVQWVRQARGQRLEWIGWIVIGSGNTNYAQKFQERVTITRDMSTSTAYMELSSLRSEDTAVYYCAAPYCSSISCNDGFDIWGQGTMVTVSS
VL: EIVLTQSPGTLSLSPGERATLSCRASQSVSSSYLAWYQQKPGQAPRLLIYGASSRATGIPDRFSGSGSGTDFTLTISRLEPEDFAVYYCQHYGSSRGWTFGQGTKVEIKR
[1]
  neutralization of authentic B.1.1.529 (Omicron) virus, foci-forming assay, IC50: 19.7 µg/mL
[2]
  neutralization of BA.4/5 pseudovirus, luciferase reporter assay, IC50: 26.7 µg/mL
